Assay [1] concerns the target T1, Cynomolgus Fibroblast Activation Protein (FAP) ectodomain with C-terminal poly-lysine and 6xHis-tag (cynomolgus monkey, UniProt Q12884 27-760 (human entry)).
T1 construct: also called cyno FAP; Cynomolgus FAP extracellular domain
The assay can be described thus: SPR (Biacore T100), His-tagged FAP captured by anti-His antibody, IgG as analyte (avidity).
Description: (§1) For immobilization carboxymethylated dextran biosensor chips (CMS, GE Healthcare) were activated with N-ethyl-N′-(3-dimethylaminopropyl)-carbodiimide hydrochloride (EDC) and N-hydroxysuccinimide (NHS) according to the supplier's instructions. The Penta His antibody was diluted with 10 mM sodium acetate, pH 5, to 40 μg/ml before injection at a flow rate of 10 μl/minute to achieve approximately 9000 response units (RU) of coupled protein. Following the injection of the ligand, 1 M ethanolamine was injected to block unreacted groups.
(§2) For kinetics measurements, human, mouse or Cynomolgus FAP extracellular domain was injected at 10 μl/min at 10 nM for 20 s (for Fab fragments) or at 20 nM for 25 s (for IgG) and was captured via its His tag by the immobilized penta His antibody. […] The following parameters were applied: Association time 180 s, dissociation 300 s (for Fab) or 900 s (for IgG), regeneration with 10 mM glycine pH 2 for 60 s between each cycle. Association rates (kₒₙ) and dissociation rates (koff) were calculated using a simple one-to-one Langmuir binding model (BIACORE® T100 Evaluation Software version 1.1.1) by simultaneously fitting the association and dissociation sensorgrams (model parameters were local Rmax and RI=0). The equilibrium dissociation constant (KD) was calculated as the ratio koff/kₒₙ.

For assay [2], the target named is T2, murine Fibroblast Activation Protein (FAP) ectodomain with C-terminal poly-lysine and 6xHis-tag (mouse, UniProt P97321 27-761).
T2 construct: also called mu FAP; murine FAP
Described as above.
Description: as §1, §2

The target of assay [3] is T3, human Fibroblast Activation Protein (FAP) ectodomain with C-terminal poly-lysine and 6xHis-tag (human, UniProt Q12884 27-760).
T3 construct: Recombinant soluble antigen used in selections, ELISA and SPR; also called hu FAP; human FAP
The assay is described as above.
Description: as §1, §2

Assay [4] addresses T4, murine Fibroblast Activation Protein (FAP) on stably transfected HEK293 cells (mouse, UniProt P97321 1-761).
T4 construct: whole, on cells; also called murine FAP
The assay can be described thus: FACS on HEK293 cells stably transfected with murine FAP.

Assay [5] has as its target T5, HER2 on stably transfected HEK293 cells (UniProt P04626 23-1255, limits assumed).
T5 construct: whole, on cells
The assay can be described thus: FACS on HEK293 cells stably expressing HER2, PE goat anti-human IgG Fc gamma detection.

Assay [6] concerns the target T6, human Fibroblast Activation Protein (FAP) on cells or in tissue (human, UniProt Q12884 1-760).
T6 construct: whole, on cells; Expressed on stably transfected HEK293 cells, on the human fibroblast cell line GM05389, on human tumor cell lines and in human tumor tissue sections; also called human FAP; hFAP
The assay can be described thus: FACS on HEK293 cells stably transfected with human FAP.

Assay [7] deals with T7, DPPIV (CD26) on stably transfected HEK293 cells (UniProt P27487 1-766).
T7 construct: whole, on cells; also called dipeptidyl peptidase IV
Put plainly: FACS on HEK293 cells stably expressing DPPIV, PE goat anti-human IgG Fc gamma detection.

Assay [8] addresses T1, Cynomolgus Fibroblast Activation …. Put plainly: SPR (Biacore T100), His-tagged FAP captured by anti-His antibody, Fab as analyte.
Description: as §1, §2
For assay [9], the target named is T2, murine Fibroblast Activation Protein …. The description is as above.
Description: as §1, §2
For assay [10], the target named is T3, human Fibroblast Activation Protein …. The description is as above.
Description: as §1, §2

B1: 4G8 human IgG1 antibody (antibody, V domains shown)
VH: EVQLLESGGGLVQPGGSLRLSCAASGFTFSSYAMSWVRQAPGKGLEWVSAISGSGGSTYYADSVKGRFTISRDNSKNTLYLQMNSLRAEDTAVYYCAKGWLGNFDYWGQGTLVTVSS
VL: EIVLTQSPGTLSLSPGERATLSCRASQSVSRSYLAWYQQKPGQAPRLLIIGASTRATGIPDRFSGSGSGTDFTLTISRLEPEDFAVYYCQQGQVIPPTFGQGTKVEIK
notes: Wild-type and glycoengineered versions were used in the ADCC assay; also called IgG 4G8; 4G8 IgG
For B1, the Kd was 0.059 nM in assay [1], 0.001 nM in [2] and 0.051 nM in assay [3]. In addition, the EC50 was determined as 1.7 nM in [4] and 5 nM in [6]. The binding result in assay [5] and in [7] was “no binding (tested: 30 µg/ml)” in each case.

B2: 3F2 Fab fragment (Fab, V domains shown)
VH: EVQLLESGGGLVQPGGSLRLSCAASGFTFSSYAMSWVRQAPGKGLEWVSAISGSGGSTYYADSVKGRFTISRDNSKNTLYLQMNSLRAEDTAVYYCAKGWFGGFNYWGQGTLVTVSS
VL: EIVLTQSPGTLSLSPGERATLSCRASQSVTSSYLAWYQQKPGQAPRLLINVGSRRATGIPDRFSGSGSGTDFTLTISRLEPEDFAVYYCQQGIMLPPTFGQGTKVEIK
notes: also called Fab fragment 3F2; clone 3F2
In the case of B2, the Kd in assay [8] was found to be 11 nM; in assay [9], 14 nM; in [10], 13 nM.

B3: 3F2 human IgG1 antibody (antibody, V domains shown)
VH: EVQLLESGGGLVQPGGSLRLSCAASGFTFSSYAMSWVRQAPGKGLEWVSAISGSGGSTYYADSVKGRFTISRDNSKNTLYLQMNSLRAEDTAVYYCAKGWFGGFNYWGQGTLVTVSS
VL: EIVLTQSPGTLSLSPGERATLSCRASQSVTSSYLAWYQQKPGQAPRLLINVGSRRATGIPDRFSGSGSGTDFTLTISRLEPEDFAVYYCQQGIMLPPTFGQGTKVEIK
notes: Wild-type and glycoengineered versions were used in the ADCC assay; also called IgG 3F2; 3F2 IgG
B3: the Kd in assay [1] is 0.042 nM; in assay [2], 0.029 nM; in assay [3], 0.039 nM. Further, the EC50 came out at 1 nM in assay [4] and 4.8 nM in assay [6]. The binding result in assay [5] and in [7] was “no binding (tested: 30 µg/ml)” in each case.

B4: 4B3 human IgG1 antibody (antibody, V domains shown)
VH: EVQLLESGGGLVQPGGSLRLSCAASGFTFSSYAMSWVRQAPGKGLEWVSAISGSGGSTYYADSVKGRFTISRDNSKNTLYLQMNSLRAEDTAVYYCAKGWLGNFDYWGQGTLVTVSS
VL: EIVLTQSPGTLSLSPGERATLSCRASQSVSSNYLAWYQQKPGQAPRLLIYGAYIRATGIPDRFSGSGSGTDFTLTISRLEPEDFAVYYCQQGQVIPPTFGQGTKVEIK
notes: Human IgG1 format; also called 4B3 IgG
Take B4: the values for the EC50 in assay [4] and in assay [6] were 1.6 nM and 5.5 nM, respectively. The binding result in assay [5] and in assay [7] was “no binding (tested: 30 µg/ml)” throughout.

B5: 4G8 Fab fragment (Fab, V domains shown)
VH: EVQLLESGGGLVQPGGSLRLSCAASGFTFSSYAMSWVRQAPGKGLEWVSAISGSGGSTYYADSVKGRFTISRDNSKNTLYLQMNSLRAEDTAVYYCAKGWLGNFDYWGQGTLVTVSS
VL: EIVLTQSPGTLSLSPGERATLSCRASQSVSRSYLAWYQQKPGQAPRLLIIGASTRATGIPDRFSGSGSGTDFTLTISRLEPEDFAVYYCQQGQVIPPTFGQGTKVEIK
notes: also called Fab fragment 4G8; clone 4G8
In the case of B5, the Kd in assay [8] was 56 nM; in [9] it was at most 7 nM; in [10] it was 74 nM.
